Measured values as given in publication PMC9355967 (Nature Communications, 2022).

Tests used:
[1] = molecular target: T1, purified AFDN FHA domain, C-terminally extended (371-580) (mouse, UniProt Q9QZQ1 371-580); test: ITC; MicroCal ITC200, 25 °C, 20 mM Tris-HCl pH 7.5, 20 mM NaCl, 1 mM DTT; conditions: both partners purified
T1 construct: 15N-labelled in one NMR experiment; GST probably cut off with thrombin; also called extended FHA domain; source: E. coli BL21, purified (glutathione resin, thrombin cleavage or glutathione elution, SEC)
T1 sequence (looked up): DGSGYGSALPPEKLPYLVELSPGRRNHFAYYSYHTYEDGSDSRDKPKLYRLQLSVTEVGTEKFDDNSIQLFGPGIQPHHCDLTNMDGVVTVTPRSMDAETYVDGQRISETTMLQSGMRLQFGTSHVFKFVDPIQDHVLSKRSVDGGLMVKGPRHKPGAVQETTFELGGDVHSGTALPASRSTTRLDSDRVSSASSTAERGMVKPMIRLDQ

[2] = molecular target: T1, purified AFDN FHA domain, C-terminally …; test: ITC; MicroCal ITC200, 25 °C, 20 mM Tris-HCl pH 7.5, 150 mM NaCl, 1 mM DTT; conditions: both partners purified

Kd [1]: 5.7 µM | Kd [2]: 14.8 µM
B1: purified SCRIB PDZ1 domain (718-820) (domain or fragment)
chain: not shown
notes: 15N-labelled in one NMR experiment; GST probably cut off with thrombin (it was mixed with GST fusions on glutathione beads); source: E. coli BL21, purified (glutathione resin, thrombin cleavage or glutathione elution, SEC)
